T1: rat sclerostin (rat)
T1 chain: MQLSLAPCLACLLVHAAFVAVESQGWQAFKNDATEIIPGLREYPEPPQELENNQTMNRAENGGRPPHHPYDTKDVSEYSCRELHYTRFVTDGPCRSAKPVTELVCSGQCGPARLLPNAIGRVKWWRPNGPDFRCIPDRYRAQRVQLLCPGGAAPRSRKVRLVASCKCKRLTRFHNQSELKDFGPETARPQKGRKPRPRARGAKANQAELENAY

T2: mouse sclerostin (mouse)
T2 chain: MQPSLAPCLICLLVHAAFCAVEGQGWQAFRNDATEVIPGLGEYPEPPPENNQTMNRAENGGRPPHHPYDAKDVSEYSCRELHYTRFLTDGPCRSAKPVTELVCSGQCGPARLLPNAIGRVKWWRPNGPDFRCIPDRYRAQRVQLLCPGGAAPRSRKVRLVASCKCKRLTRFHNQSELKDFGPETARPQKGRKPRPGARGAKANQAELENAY

T3: cynomolgus sclerostin (cynomolgus monkey)
T3 chain: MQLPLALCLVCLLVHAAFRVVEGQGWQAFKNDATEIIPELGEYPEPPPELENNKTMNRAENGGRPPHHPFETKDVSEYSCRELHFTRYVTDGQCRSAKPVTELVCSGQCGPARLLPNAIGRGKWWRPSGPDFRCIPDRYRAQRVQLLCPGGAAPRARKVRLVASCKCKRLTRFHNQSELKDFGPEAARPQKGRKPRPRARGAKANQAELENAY

T4: human sclerostin (human)
T4 chain: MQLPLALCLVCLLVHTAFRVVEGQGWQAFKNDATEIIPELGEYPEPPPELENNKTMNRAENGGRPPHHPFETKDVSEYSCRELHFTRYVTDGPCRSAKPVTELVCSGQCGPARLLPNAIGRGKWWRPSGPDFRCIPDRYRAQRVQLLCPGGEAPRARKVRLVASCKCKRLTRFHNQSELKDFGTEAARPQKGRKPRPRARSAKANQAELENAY


Key:
rat sclerostin [1] = target: T1, rat sclerostin; assay: SPR, pH 5.8, 37C
rat sclerostin [2] = target: T1, rat sclerostin; assay: SPR, pH 7.4, 37C
mouse sclerostin [3] = target: T2, mouse sclerostin; assay: SPR, pH 7.4, 37C
mouse sclerostin [4] = target: T2, mouse sclerostin; assay: SPR, pH 7.4 to 5.8, 37C
mouse sclerostin [5] = target: T2, mouse sclerostin; assay: SPR, pH 5.8, 37C
cynomolgus sclerostin [6] = target: T3, cynomolgus sclerostin; assay: SPR, pH 7.4
human sclerostin [7] = target: T4, human sclerostin; assay: SPR, pH 7.4
cynomolgus sclerostin [8] = target: T3, cynomolgus sclerostin; assay: SPR, pH 7.4 to 5.8
human sclerostin [9] = target: T4, human sclerostin; assay: SPR, pH 7.4 to 5.8

Kd (mouse sclerostin [3]) [nM]	koff (mouse sclerostin [4]) [s⁻¹]	koff (cynomolgus sclerostin [6]) [s⁻¹]	koff (human sclerostin [7]) [s⁻¹]	Binder	further results
0.138	0.0206	–	–	mabB_pH1 (antibody, V domains shown) VH: QVQLVQSGAEVKKPGASVKVSCKVSGFPIKHHFQHWVRQAPGKGLEWMGWSDPEIGDTEYASKFQGRVTMTEDTSTDTAYMELSSLRSEDTAVYYCATGDTTYKFDFWGQGTTVTVSS VL: DIQMTQSPSSLSASVGDRVTITCKASQDVHTAVAWYQQKPGKAPKLLIYWASTRWTGVPSRFSGSGSGTDFTLTISSLQPEDFATYYCQQYHDYPWTFGGGTKVEIK	–
0.782	–	–	–	mabB_pH4 (antibody, V domains shown) VH: QVQLVQSGAEVKKPGASVKVSCKVSGFPIKHHFQHWVRQAPGKGLEWMGWSDPEIGDTEYASKFQGRVTMTEDTSTDTAYMELSSLRSEDTAVYYCATGDTTYKFDFWGQGTTVTVSS VL: DIQMTQSPSSLSASVGDRVTITCKASQDVHTAVAWYQQKPGKAPKLLIYWASTRWTGVPSRFSGSGSGTDFTLTISSLQPEDFATYYCQQYSDYHWTFGGGTKVEIK	–
–	0.0516	–	–	mabB//mabA_pH3 (antibody) chain 1: QVQLVQSGAEVKKPGASVKVSCKVSGFPIKDTFQHWVRQAPGKGLEWMGWSDPEIGDTEYASKFQGRVTMTEDTSTDTAYMELSSLRSEDTAVYYCATGDTTYKFDFWGQGTTVTVSS chain 2: DIQMTQSPSSLSASVGDRVTITCKASQDVHTAVAWYQQKPGKAPKLLIYWASTRWTGVPSRFSGSGSGTDFTLTISSLQPEDFATYYCQQYSDYPWTFGGGTKVEIK chain 3: EVQLVQSGAEVKKPGASVKVSCKASGYTFTDYNMHWVRQAPGQGLEWMGEINPHSGHAGYNQKFKGRVTMTTDTSTSTAYMELRSLRSDDTAVYYCARLHYDDIHDDWYFDVWGQGTTVTVSS chain 4: DIQMTQSPSSLSASVGDRVTITCRASHDISNYLNWYQQKPGKAPKLLIYYTSRLLSGVPSRFSGSGSGTDFTLTISSLQPEDFATYYCQQGDTLPYTFGGGTKVEIK	–
0.589	–	–	–	mabB_pH5 (antibody, V domains shown) VH: QVQLVQSGAEVKKPGASVKVSCKVSGFPIKHHFQHWVRQAPGKGLEWMGWSDPEIGDTEYASKFQGRVTMTEDTSTDTAYMELSSLRSEDTAVYYCATGHTTYKFDFWGQGTTVTVSS VL: DIQMTQSPSSLSASVGDRVTITCKASQDVHTAVAWYQQKPGKAPKLLIYWASTRWTGVPSRFSGSGSGTDFTLTISSLQPEDFATYYCQQYSDYHWTFGGGTKVEIK	–
–	0.0186	–	–	mabB//mabA_pH2 (antibody) chain 1: QVQLVQSGAEVKKPGASVKVSCKVSGFPIKDTFQHWVRQAPGKGLEWMGWSDPEIGDTEYASKFQGRVTMTEDTSTDTAYMELSSLRSEDTAVYYCATGDTTYKFDFWGQGTTVTVSS chain 2: DIQMTQSPSSLSASVGDRVTITCKASQDVHTAVAWYQQKPGKAPKLLIYWASTRWTGVPSRFSGSGSGTDFTLTISSLQPEDFATYYCQQYSDYPWTFGGGTKVEIK chain 3: EVQLVQSGAEVKKPGASVKVSCKASGYTFTDYNMHWVRQAPGQGLEWMGEINPNSGHAGYNQKFKGRVTMTTDTSTSTAYMELRSLRSDDTAVYYCARLHYDHIYDDWYFDVWGQGTTVTVSS chain 4: DIQMTQSPSSLSASVGDRVTITCRASHDISNYLNWYQQKPGKAPKLLIYYTSRLLSGVPSRFSGSGSGTDFTLTISSLQPEDFATYYCQQGDTLPYTFGGGTKVEIK	–

The remaining lines, values behind:

Binder	Kd (mouse sclerostin [3]) [nM]	koff (mouse sclerostin [4]) [s⁻¹]	koff (cynomolgus sclerostin [6]) [s⁻¹]	koff (human sclerostin [7]) [s⁻¹]	further results
mabA_NpH3 (antibody, V domains shown) VH: EVQLVQSGAEVKKPGASVKVSCKASGYTFTDYNMHWVRQAPGQGLEWMGEINPNSGGAGYNQKFKGRVTMTTDTSTSTAYMELRSLRSDDTAVYYCARLGYDDIYDDWYFDVWGQGTTVTVSS VL: DIQMTQSPSSLSASVGDRVTITCRASQDISNYLNWYQQKPGKAPKLLIYYHSRLLSGVPSRFSGSGSGTDFTLTISSLQPEDFATYYCHQGDTLPYTFGGGTKVEIK	–	–	–	–	Kd (rat sclerostin [1]): 0.0454 nM; Kd (rat sclerostin [2]): 0.0426 nM
mabB (antibody, V domains shown) VH: QVQLVQSGAEVKKPGASVKVSCKVSGFPIKDTFQHWVRQAPGKGLEWMGWSDPEIGDTEYASKFQGRVTMTEDTSTDTAYMELSSLRSEDTAVYYCATGDTTYKFDFWGQGTTVTVSS VL: DIQMTQSPSSLSASVGDRVTITCKASQDVHTAVAWYQQKPGKAPKLLIYWASTRWTGVPSRFSGSGSGTDFTLTISSLQPEDFATYYCQQYSDYPWTFGGGTKVEIK	0.0141	–	–	–	Kd (mouse sclerostin [5]): 0.26 nM
bsH638/abL152 (antibody, V domains shown) VH: QVQLVQSGAEVKKPGASVKVSCKVSGYTLTHTFMHWVRQAPGKGLEWMGWSDPEIGDHEYASKFQGRVTMTEDTSTDTAYMELSSLRSEDTAVYYCATGDTTYKFDYWGQGTLVTVSS VL: DIQMTQSPSSLSASVGDRVTITCRASEGIHDALAWYQQKPGKAPKLLIYWASTLESGVPSRFSGSGSGTDFTLTISSLQPEDFATYYCQQGDTLPYTFGGGTKVEIK	–	–	0.0107	0.0093	–
bsH656/abL152 (antibody, V domains shown) VH: QVQLVQSGAEVKKPGASVKVSCKVSGYTLTHTFMHWVRQAPGKGLEWMGWSDPEIGDTEYASKFQGRVTMTEDTSTDTAYMELSSLRSEDTAVYYCATGDTTYKFDYWGQGTLVTVSS VL: DIQMTQSPSSLSASVGDRVTITCRASEGIHDALAWYQQKPGKAPKLLIYWASTLESGVPSRFSGSGSGTDFTLTISSLQPEDFATYYCQQGDTLPYTFGGGTKVEIK	–	–	0.0108	0.0104	–
mabB//mabA_pH1 (antibody) chain 1: QVQLVQSGAEVKKPGASVKVSCKVSGFPIKDTFQHWVRQAPGKGLEWMGWSDPEIGDTEYASKFQGRVTMTEDTSTDTAYMELSSLRSEDTAVYYCATGDTTYKFDFWGQGTTVTVSS chain 2: DIQMTQSPSSLSASVGDRVTITCKASQDVHTAVAWYQQKPGKAPKLLIYWASTRWTGVPSRFSGSGSGTDFTLTISSLQPEDFATYYCQQYSDYPWTFGGGTKVEIK chain 3: EVQLVQSGAEVKKPGASVKVSCKASGYTFTDYNMHWVRQAPGQGLEWMGEINPNSGHAGYNQKFKGRVTMTTDTSTSTAYMELRSLRSDDTAVYYCARLHYDDIYDDWYFDVWGQGTTVTVSS chain 4: DIQMTQSPSSLSASVGDRVTITCRASHDISNYLNWYQQKPGKAPKLLIYYTSRLLSGVPSRFSGSGSGTDFTLTISSLQPEDFATYYCQQGDTLPYTFGGGTKVEIK	–	0.0347	–	–	–
amH852/bsH656/abL152 (antibody) chain 1: EVQLVQSGAEVKKPGASVKVSCKASGYTFTDYNMHWVRQAPGKGLEWMGEIMPHSGRYGLKQKFKGRVTMTTDTSTSTAYMELRSLRSDDTAVYYCARLEYSEIYDDWYFDVWGQGTTVTVSS chain 2: DIQMTQSPSSLSASVGDRVTITCRASEGIHDALAWYQQKPGKAPKLLIYWASTLESGVPSRFSGSGSGTDFTLTISSLQPEDFATYYCQQGDTLPYTFGGGTKVEIK chain 3: QVQLVQSGAEVKKPGASVKVSCKVSGYTLTHTFMHWVRQAPGKGLEWMGWSDPEIGDTEYASKFQGRVTMTEDTSTDTAYMELSSLRSEDTAVYYCATGDTTYKFDYWGQGTLVTVSS chain 4: DIQMTQSPSSLSASVGDRVTITCRASEGIHDALAWYQQKPGKAPKLLIYWASTLESGVPSRFSGSGSGTDFTLTISSLQPEDFATYYCQQGDTLPYTFGGGTKVEIK	–	–	0.000405	0.000419	koff (cynomolgus sclerostin [8]): 0.116 s⁻¹; koff (human sclerostin [9]): 0.0593 s⁻¹
amH848/abL152 (antibody, V domains shown) VH: EVQLVQSGAEVKKPGASVKVSCKASGYTFTSYNMHWVRQAPGKGLEWMGEIMPHSGRYGLKQKFKGRVTMTRDTSISTAYMELSRLRSDDTAVYYCARLEYSEIYDDWYFDVWGQGTTVTVSS VL: DIQMTQSPSSLSASVGDRVTITCRASEGIHDALAWYQQKPGKAPKLLIYWASTLESGVPSRFSGSGSGTDFTLTISSLQPEDFATYYCQQGDTLPYTFGGGTKVEIK	–	–	0.00854	0.00946	–
mabA_pH4 (antibody, V domains shown) VH: EVQLVQSGAEVKKPGASVKVSCKASGYTFTDYNMHWVRQAPGQGLEWMGEINPHSGHAGYNQKFKGRVTMTTDTSTSTAYMELRSLRSDDTAVYYCARLHYDDIHDDWYFDVWGQGTTVTVSS VL: DIQMTQSPSSLSASVGDRVTITCRASHDIHNYLNWYQQKPGKAPKLLIYYTSRLLSGVPSRFSGSGSGTDFTLTISSLQPEDFATYYCQQGDTLPYTFGGGTKVEIK	1.73	0.0418	–	–	–
